# Results: FireProtDB (doi:10.1016/j.jmb.2010.11.028)
# B1: Alpha-tocopherol transfer protein, P49638 (parent)
# chain: MAEARSQPSAGPQLNALPDHSPLLQPGLAALRRRAREAGVPLAPLPLTDSFLLRFLRARDFDLDLAWRLLKNYYKWRAECPEISADLHPRSIIGLLKAGYHGVLRSRDPTGSKVLIYRIAHWDPKVFTAYDVFRVSLITSELIVQEVETQRNGIKAIFDLEGWQFSHAFQITPSVAKKIAAVLTDSFPLKVRGIHLINEPVIFHAVFSMIKPFLTEKIKERIHMHGNNYKQSLLQHFPDILPLEYGGEEFSMEDICQEWTNFIMKSEDYLSSISESIQ
# Variants of: B1
# Conditions: Homo sapiens; pH 7.4; Thermal; Fluorescence; Tris 50mM; structure 1R5L; whole UniProt chain shown
row,Variant,Tm [°C]
1,MAEARSQPSAGPQLNALPDHSPLLQPGLAALRRRAREAGVPLAPLPLTDSFLLRFLRARDFDLDLAWRLLKNYYKWRAECPEISADLHPRSIIGLLKAGYHGVLRSRDPTGSKVLIYRIAHWDPKVFTAYDVFRVSLITSELIVQEVETQRNGIKAIFDLEGWQFSHAFQITPSVAKKIAAVLTDSFPLKVRGIHLINEPVIFHAVFSAIKPFLTEKIKERIHMHGNNYKQSLLQHFPDILPLEYGGEEFSMEDICQEWTNFIMKSEDYLSSISESIQ [M209A],82.8
2,MAEARSQPSAGPQLNALPDHSPLLQPGLAALRRRAREAGVPLAPLPLTDSFLLRFLRARDFDLDLAWRLLKNYYKWRAECPEISADLHPRSIIGLLKAGYHGVLRSRDPTGSKVLIYRIAHWDPKVFTAYDVFRVSLITSELIVQEVETQRNGIKAIFDLEGWQFSHAFQITPSVAKKIAAVLTDSFPLKVRGIHLINEPVIFHAVFSDIKPFLTEKIKERIHMHGNNYKQSLLQHFPDILPLEYGGEEFSMEDICQEWTNFIMKSEDYLSSISESIQ [M209D],79.5
3,MAEARSQPSAGPQLNALPDHSPLLQPGLAALRRRAREAGVPLAPLPLTDSFLLRFLRARDFDLDLAWRLLKNYYKWRAECPEISADLHPRSIIGLLKAGYHGVLRSRDPTGSKVLIYRIAHWDPKVFTAYDVFRVSLITSELIVQEVETQRNGIKAIFDLEGWQFSHAFQITPSVAKKIAAVLTDSFPLKVRGIHLINEPVIFHADFSMIKPFLTEKIKERIHMHGNNYKQSLLQHFPDILPLEYGGEEFSMEDICQEWTNFIMKSEDYLSSISESIQ [V206D],76
4,MAEARSQPSAGPQLNALPDHSPLLQPGLAALRRRAREAGVPLAPLPLTDSFLLRFLRARDFDLDLAWRLLKNYYKWRAECPEISADLHPRSIIGLLKAGYHGVLRSRDPTGSKVLIYRIAHWDPKVFTAYDVFRVSLITSELIVQEVETQRNGIKAIFDLEGWQFSHAFQITPSVAKKIAAVLTDSFPLKVRGIHLINEPVIFHAAFSMIKPFLTEKIKERIHMHGNNYKQSLLQHFPDILPLEYGGEEFSMEDICQEWTNFIMKSEDYLSSISESIQ [V206A],78.2
5,MAEARSQPSAGPQLNALPDHSPLLQPGLAALRRRAREAGVPLAPLPLTDSFLLRFLRARDFDLDLAWRLLKNYYKWRAECPEISADLHPRSIIGLLKAGYHGVLRSRDPTGSKVLIYRIAHWDPKVFTAYDVFRVSLITSELIVQEVETQRNGIKAIFDLEGWQDSHAFQITPSVAKKIAAVLTDSFPLKVRGIHLINEPVIFHAVFSMIKPFLTEKIKERIHMHGNNYKQSLLQHFPDILPLEYGGEEFSMEDICQEWTNFIMKSEDYLSSISESIQ [F165D],82.4
6,MAEARSQPSAGPQLNALPDHSPLLQPGLAALRRRAREAGVPLAPLPLTDSFLLRFLRARDFDLDLAWRLLKNYYKWRAECPEISADLHPRSIIGLLKAGYHGVLRSRDPTGSKVLIYRIAHWDPKVFTAYDVFRVSLITSELIVQEVETQRNGIKAIFDLEGWQASHAFQITPSVAKKIAAVLTDSFPLKVRGIHLINEPVIFHAVFSMIKPFLTEKIKERIHMHGNNYKQSLLQHFPDILPLEYGGEEFSMEDICQEWTNFIMKSEDYLSSISESIQ [F165A],82.4
7,MAEARSQPSAGPQLNALPDHSPLLQPGLAALRRRAREAGVPLAPLPLTDSFLLRFLRARDFDLDLAWRLLKNYYKWRAECPEISADLHPRSIIGLLKAGYHGVLRSRDPTGSKVLIYRIAHWDPKVFTAYDVFRVSLITSELIVQEVETQRNGIKAIFDLEGWQFSHAAQITPSVAKKIAAVLTDSFPLKVRGIHLINEPVIFHAVFSMIKPFLTEKIKERIHMHGNNYKQSLLQHFPDILPLEYGGEEFSMEDICQEWTNFIMKSEDYLSSISESIQ [F169A],75.3
8,MAEARSQPSAGPQLNALPDHSPLLQPGLAALRRRAREAGVPLAPLPLTDSFLLRFLRARDFDLDLAWRLLKNYYKWRAECPEISADLHPRSIIGLLKAGYHGVLRSRDPTGSKVLIYRIAHWDPKVFTAYDVFRVSLITSELIVQEVETQRNGIKAIFDLEGWQFSHAFQITPSVAKKIAAVLTDSFPLKVRGIHLINEPVAFHAVFSMIKPFLTEKIKERIHMHGNNYKQSLLQHFPDILPLEYGGEEFSMEDICQEWTNFIMKSEDYLSSISESIQ [I202A],74.9
9,MAEARSQPSAGPQLNALPDHSPLLQPGLAALRRRAREAGVPLAPLPLTDSFLLRFLRARDFDLDLAWRLLKNYYKWRAECPEISADLHPRSIIGLLKAGYHGVLRSRDPTGSKVLIYRIAHWDPKVFTAYDVFRVSLITSELIVQEVETQRNGIKAIFDLEGWQFSHAFQITPSVAKKIAAVLTDSFPLKVRGIHLINEPVDFHAVFSMIKPFLTEKIKERIHMHGNNYKQSLLQHFPDILPLEYGGEEFSMEDICQEWTNFIMKSEDYLSSISESIQ [I202D],73.6
10,MAEARSQPSAGPQLNALPDHSPLLQPGLAALRRRAREAGVPLAPLPLTDSFLLRFLRARDFDLDLAWRLLKNYYKWRAECPEISADLHPRSIIGLLKAGYHGVLRSRDPTGSKVLIYRIAHWDPKVFTAYDVFRVSLITSELIVQEVETQRNGIKAIFDLEGWQFSHAFQITPSVAKKIAAVLTDSFPLKVRGIHLINEPVIFHAVFSMIKPFLTEKIKERIHMHGNNYKQSLLQHFPDILPLEYGGEEFSMEDICQEWTNFIDKSEDYLSSISESIQ [M264D],68.8
